Measurements from patent US20080233131A1.

Tests used:
[1] = molecular target: cynomolgus macaque CD4 on lymphocytes / PBMC (cynomolgus macaque (Macaca fascicularis)) (UniProt P79185); assay: flow cytometry of whole blood of TRX1-treated macaques; competitor SK3-RPE
[2] = molecular target: cynomolgus macaque CD4 on lymphocytes / PBMC (cynomolgus macaque (Macaca fascicularis)) (UniProt P79185); assay: flow cytometry of whole blood of TRX1-immunised macaques; competitor 7E14-RPE

UniProt P79185, sequence (P79185 26-458 limits assumed): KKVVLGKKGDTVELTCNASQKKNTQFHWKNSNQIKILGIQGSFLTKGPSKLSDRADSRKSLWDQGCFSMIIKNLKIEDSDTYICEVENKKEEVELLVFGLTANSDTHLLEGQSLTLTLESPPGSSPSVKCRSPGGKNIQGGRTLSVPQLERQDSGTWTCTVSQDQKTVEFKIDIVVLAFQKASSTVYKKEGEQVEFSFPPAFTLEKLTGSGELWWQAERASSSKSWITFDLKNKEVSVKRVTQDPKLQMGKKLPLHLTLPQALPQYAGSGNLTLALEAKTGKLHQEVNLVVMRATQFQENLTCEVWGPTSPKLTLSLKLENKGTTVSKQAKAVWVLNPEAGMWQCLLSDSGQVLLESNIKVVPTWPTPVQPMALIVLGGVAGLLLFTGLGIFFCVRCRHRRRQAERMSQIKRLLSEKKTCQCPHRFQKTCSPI

reduction in the MFI of SK3 staining [1]: 50% | reduction in the MFI of 7E14 staining [2]: 50%
Substance: humanized anti-human CD4 monoclonal antibody TRX1
